“And” between values parts separate entries of the source, which are not always exact repeats. Equal entries are not always repeated.

The text below walks through data of doi:10.1101/2024.02.16.579620 (bioRxiv, 2024).

The data set “MST” concerns the molecule itself. In words: MST.
For another data set, the target named is ΔEspP peptide. In words: dynamic light scattering.
The data set “SEC” deals with the molecule itself. In words: SEC. For orientation: SEC sorts molecules by how far they enter the pores of the column.

B1: FITC-labelled human Ire1α luminal domain (aa 24-449) (domain or fragment)
chain: STVTLPETLLFVSTLDGSLHAVSKRTGSIKWTLKEDPVLQVPTHVEEPAFLPDPNDGSLYTLGSKNNEGLTKLPFTIPELVQASPCRSSDGILYMGKKQDIWYVIDLLTGEKQQTLSSAFADSLCPSTSLLYLGRTEYTITMYDTKTRELRWNATYFDYAASLPEDDVDYKMSHFVSNGDGLVVTVDSESGDVLWIQNYASPVVAFYVWQREGLRKVMHINVAVETLRYLTFMSGEVGRITKWKYPFPKETEAKSKLTPTLYVGKYSTSLYASPSMVHEGVAVVPRGSTLPLLEGPQTDGVTIGDKGECVITPSTDVKFDPGLKSKNKLNYLRNYWLLIGHHETPLSASTKMLERFPNNLPKHRENVIPADSEKKSFEEVINLVDQTSENAPTTVSRDVEEKPAHAPARPEAPVDSMLKDMATIIL
modifications: FITC label (site not stated)
Turning to B1, binding in the data set “MST” was put at a Kd of 500 nM. That is a sub-micromolar value.

B2: human Ire1α luminal domain (aa 24-449), wild type (domain or fragment)
chain: B1 chain
Regarding B2, the binding result with ΔEspP peptide is “binds”. Moreover, the stoichiometry N (usually the number of molecules, sites or subunits per partner or assembly) in the data set “SEC” was 2 and 4.
